The target of this assay is SET-26::GFP, excessively sumoylated (from F2 ulp-2(tv380) or ulp-2(RNAi) animals) (C. elegans) (UniProt Q9U263). Nature of the assay: co-IP; anti-GFP immunoprecipitation of SET-26::GFP from whole-worm lysates (1% PFA, sonicated), blot with anti-H3K4me3; WT and F2 ulp-2(tv380) backgrounds; 3 biological replicates.
Chain of UniProt Q9U263 (Q9U263 whole entry): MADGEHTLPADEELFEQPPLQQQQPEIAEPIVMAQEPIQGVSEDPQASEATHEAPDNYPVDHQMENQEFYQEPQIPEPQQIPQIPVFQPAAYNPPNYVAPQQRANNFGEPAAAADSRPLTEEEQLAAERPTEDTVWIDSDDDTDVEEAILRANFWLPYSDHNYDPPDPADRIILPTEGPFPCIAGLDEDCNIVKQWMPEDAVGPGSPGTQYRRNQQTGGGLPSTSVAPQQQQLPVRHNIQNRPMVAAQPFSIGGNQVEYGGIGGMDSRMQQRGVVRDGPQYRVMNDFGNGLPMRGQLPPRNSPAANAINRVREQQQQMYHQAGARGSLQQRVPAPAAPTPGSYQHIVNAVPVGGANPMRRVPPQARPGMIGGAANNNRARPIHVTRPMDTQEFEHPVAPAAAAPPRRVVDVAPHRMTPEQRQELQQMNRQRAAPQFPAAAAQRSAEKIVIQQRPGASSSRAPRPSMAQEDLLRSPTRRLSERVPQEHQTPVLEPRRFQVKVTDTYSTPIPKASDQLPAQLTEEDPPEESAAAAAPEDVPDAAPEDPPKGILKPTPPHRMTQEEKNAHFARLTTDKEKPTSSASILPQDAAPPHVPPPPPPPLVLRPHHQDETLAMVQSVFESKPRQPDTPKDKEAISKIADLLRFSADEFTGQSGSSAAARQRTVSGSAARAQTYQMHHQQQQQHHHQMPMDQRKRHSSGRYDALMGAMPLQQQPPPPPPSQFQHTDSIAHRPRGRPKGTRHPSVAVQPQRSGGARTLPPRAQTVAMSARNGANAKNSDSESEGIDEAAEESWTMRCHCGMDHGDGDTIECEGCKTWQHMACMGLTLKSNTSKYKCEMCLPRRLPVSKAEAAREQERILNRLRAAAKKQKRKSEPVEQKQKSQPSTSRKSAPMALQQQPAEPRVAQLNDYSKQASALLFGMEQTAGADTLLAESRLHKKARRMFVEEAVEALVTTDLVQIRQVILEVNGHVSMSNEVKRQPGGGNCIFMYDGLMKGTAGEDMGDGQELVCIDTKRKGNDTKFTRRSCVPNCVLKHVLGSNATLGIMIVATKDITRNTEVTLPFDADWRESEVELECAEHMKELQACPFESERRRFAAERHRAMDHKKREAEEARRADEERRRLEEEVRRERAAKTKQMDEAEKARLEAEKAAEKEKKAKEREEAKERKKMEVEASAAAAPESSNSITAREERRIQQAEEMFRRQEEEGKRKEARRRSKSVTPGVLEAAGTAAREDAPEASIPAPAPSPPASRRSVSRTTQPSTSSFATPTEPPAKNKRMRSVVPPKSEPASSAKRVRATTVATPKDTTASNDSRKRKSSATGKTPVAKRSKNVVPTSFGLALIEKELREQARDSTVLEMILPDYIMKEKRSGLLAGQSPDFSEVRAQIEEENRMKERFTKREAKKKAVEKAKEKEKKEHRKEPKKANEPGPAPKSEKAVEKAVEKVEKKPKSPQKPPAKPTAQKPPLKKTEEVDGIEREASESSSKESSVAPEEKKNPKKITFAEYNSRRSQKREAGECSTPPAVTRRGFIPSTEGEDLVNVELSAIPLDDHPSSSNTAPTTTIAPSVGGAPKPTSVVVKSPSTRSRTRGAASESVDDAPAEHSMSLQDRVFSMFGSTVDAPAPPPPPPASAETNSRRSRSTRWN

In turn, “Histone H3 tri-methylated at lysine 4 (H3K4me3) (from UniProt P08898 1-136) (natural protein)” came in with a reduction of binding compared with WT of 55%.

The record behind these values is PMC11703099.
